Starred links: 1 amine or outer side, 2 acyl side, 3 side chain; linkers in the order of their positions; H or OH if unused. Positions of bridges follow the written chain, without caps; N, C: chain ends. Non-standard residues stand in square brackets, D forms with d. Residues, ends and D or L forms follow the SMILES beside them. *: point of attachment. X9 = CCOCc1nc2c(NC(=O)[C@H](CCCCNC(=O)OCc3ccc(NC(=O)[C@H](CCCNC(N)=O)NC(=O)[C@@H](NC(=O)Cn4cc(CCC(=O)*)nn4)C(C)C)cc3)NC(C)=O)nc3ccccc3c2n1CC(C)(C)O; X14 = CCCOc1nc(NC(=O)CCCNC(=O)OCc2ccc(NC(=O)[C@H](CCCNC(N)=O)NC(=O)[C@@H](NC(=O)Cn3cc(CCC(=O)*)nn3)C(C)C)cc2)c2[nH]c(=O)n(Cc3ccc(OCCN(C)C)nc3)c2n1; X13 = CCOCc1nc2c(NC(=O)N(C)CCN(C)C(=O)OCc3ccc(NC(=O)[C@H](CCCNC(N)=O)NC(=O)[C@@H](NC(=O)Cn4cc(CCC(=O)*)nn4)C(C)C)cc3)nc3ccccc3c2n1CC(C)(C)O; X16 = CCCOc1nc(NC(=O)CCCSSC(C)CCC(=O)*)c2[nH]c(=O)n(Cc3ccc(OCCN(C)C)nc3)c2n1; X15 = CCOCc1nc2c(NC(=O)CCCSSC(C)CCC(=O)*)nc3ccccc3c2n1CC(C)(C)O; Resiquimod = CCOCc1nc2c(N*)nc3ccccc3c2n1CC(C)(C)O; 1Nal = N[C@@H](Cc1cccc2ccccc12)C(=O)O; TBMB = c1c(C[*:1])cc(C[*:3])cc1C[*:2]; Glutaryl = O=C(CCCC(=O)[*:2])[*:1]; Tle = CC(C)(C)[C@H](N)C(=O)O; βAla = NCCC(=O)O; Sar = CNCC(=O)O
What was measured:
[1] = Blood stability, mouse; type: in vitro ADME, CD-1 mouse; conditions: male
Experimental: CD-1 mouse blood (n≥2, male, fasted overnight) is collected from animals housed at an internal facility. (EDTA-K2 is used as anticoagulant)
The test compounds and positive control stock solutions are prepared to 10 mM in DMSO or ultrapure water. Control compounds bisacodyl, enalapril and propantheline known to be metabolised by blood are also incubated alongside each batch of test compounds I-7, I-22, I-24, I-25, I-27, and I-29 to I-33. The dosing solutions of test compounds and controls are prepared by diluting the stock solution with 45% MeOH/H2O to achieve 100 uM. Test compound solutions (final incubation concentration=2 μM) are incubated with blood (final DMSO concentration≤1%) at six different time points (0, 1, 2, 4, 6 and 24 hours) in duplicate (n=2). The reaction is terminated by adding 100 uL ultra-pure water, mixing well, then adding 800 uL of 100% methanol containing 200 ng/mL tolbutamide and 200 ng/mL labetalol as internal standards. Samples are then vortexed and centrifuged at 3200×g for 20 minutes. Following centrifugation, the concentration of test compound in the supernatant is determined semi-quantitatively by LC-MS/MS. The percentage of test compound remaining at the individual time points relative to the 0 hour sample is then reported. The percent remaining of test compound after incubation in blood is calculated using following equation: Percent Remaining=100×(PAR at appointed incubation time/PAR at T0 time) where PAR is the peak area ratio of analyte versus internal standard (IS).

[2] = Plasma stability, human; type: in vitro ADME; conditions: human, plasma, pH 7.4
Experimental: (§1) The pooled frozen mouse, rat, dog, monkey or human plasma is thawed in a water bath at 37° C. prior to experiment. Plasma is centrifuged at 4000 rpm for 5 min and the clots are removed if any. […] For positive controls, 100 μM intermediate solution is prepared by diluting 20 μL of the stock solution with 180 μL 45% MeOH/H2O. […] For compounds I-7 to […]-17, […]-22, and […]-33, at each time point (0, 1, 2, 4, 6 and 24 hr), reactions were stopped by removing the plates from water bath and 200 μL 20 mM NH4OAC mix well first and then adding 800 μL of ice-cold stop solution (200 ng/mL Labetalol, 200 ng/mL Tolbutamide, 500 ng/mL N6-Ben and 40 mM DBAA in 100% Methanol). […] Sample plates were vortexed immediately on a plate shaker at 800 rpm for 10 min and then centrifuged at 4,000 rpm for 10 min. An aliquot of supernatant (200 μL) is transferred from each well before submitting to LC-MS/MS analysis. The percentage of test compound remaining at the individual time points relative to the 0 hour sample is calculated using following equation: Percent Remaining=100×(PAR at appointed incubation time/PAR at T0 time) where PAR is the peak area ratio of analyte versus internal standard (IS).

[3] = Plasma stability, cyno; type: in vitro ADME; conditions: cynomolgus monkey, plasma, pH 7.4
Experimental: as §1

[4] = Plasma stability, rat; type: in vitro ADME; conditions: rat, plasma, pH 7.4
Experimental: as §1

[5] = Plasma stability, mouse; type: in vitro ADME; conditions: mouse, plasma, pH 7.4
Experimental: as §1

Row | Structure (SMILES) | half-life at 2 μM ([1]; CD-1, mouse) [h] | half-life at 2 μM [2] [h] | half-life at 2 μM [3] [h] | half-life at 2 μM [4] [h] | half-life at 2 μM [5] [h] | half-life at 2 μM ([1]; CD-1 mouse blood, 2 μM, read-out: T1/2 (mouse)) [h]
1 | CCOCc1nc2c(NC(=O)N(C)CCN(C)C(=O)OCc3ccc(NC(=O)[C@H](CCCNC(N)=O)NC(=O)[C@@H](NC(=O)Cn4cc(CCC(=O)NCCC(=O)N(C)CC(=O)N(C)CC(=O)N(C)CC(=O)N(C)CC(=O)N(C)CC(=O)N(C)CC(=O)N(C)CC(=O)N(C)CC(=O)N(C)CC(=O)N(C)CC(=O)N[C@@H](C)C(=O)N[C@H]5CSCc6cc7cc(c6)CSC[C@H](NC(=O)[C@@H](C)NC(=O)[C@H](Cc6cccc8ccccc68)NC(=O)[C@H](CCC(=O)O)NC(=O)[C@H](CC(N)=O)NC(=O)[C@@H](C)NC5=O)C(=O)N[C@@H](CCC(=O)O)C(=O)N[C@@H](CC(=O)O)C(=O)N[C@@H](Cc5ccccc5)C(=O)N[C@@H](Cc5ccc(O)cc5)C(=O)N[C@@H](CC(=O)O)C(=O)N[C@@H](C(C)(C)C)C(=O)N[C@H](C(N)=O)CSC7)nn4)C(C)C)cc3)nc3ccccc3c2n1CC(C)(C)O [1-31] ({X13-βAla}-[Sar][Sar][Sar][Sar][Sar][Sar][Sar][Sar][Sar][Sar]AC[dA]NE[1Nal][dA]CEDFYD[Tle]C-NH2; linker 12-18-25 via TBMB) | 6 to 24 |  |  |  |  | 
2 | CCCOc1nc(NC(=O)CCCSSC(C)CCC(=O)NCCC(=O)N(C)CC(=O)N(C)CC(=O)N(C)CC(=O)N(C)CC(=O)N(C)CC(=O)N(C)CC(=O)N(C)CC(=O)N(C)CC(=O)N(C)CC(=O)N(C)CC(=O)N[C@@H](C)C(=O)N[C@H]2CSCc3cc4cc(c3)CSC[C@H](NC(=O)[C@@H](C)NC(=O)[C@H](Cc3cccc5ccccc35)NC(=O)[C@H](CCC(=O)O)NC(=O)[C@H](CC(N)=O)NC(=O)[C@@H](C)NC2=O)C(=O)N[C@@H](CCC(=O)O)C(=O)N[C@@H](CC(=O)O)C(=O)N[C@@H](Cc2ccccc2)C(=O)N[C@@H](Cc2ccc(O)cc2)C(=O)N[C@@H](CC(=O)O)C(=O)N[C@@H](C(C)(C)C)C(=O)N[C@H](C(N)=O)CSC4)c2[nH]c(=O)n(Cc3ccc(OCCN(C)C)nc3)c2n1 (stereo partly drawn) [I-23] ({X16-βAla}-[Sar][Sar][Sar][Sar][Sar][Sar][Sar][Sar][Sar][Sar]AC[dA]NE[1Nal][dA]CEDFYD[Tle]C-NH2; linker 12-18-25 via TBMB) |  | < 2 | < 2 | < 2 | < 2 | 
3 | CCOCc1nc2c(NC(=O)[C@H](CCCCNC(=O)OCc3ccc(NC(=O)[C@H](CCCNC(N)=O)NC(=O)[C@@H](NC(=O)Cn4cc(CCC(=O)NCCC(=O)N(C)CC(=O)N(C)CC(=O)N(C)CC(=O)N(C)CC(=O)N(C)CC(=O)N(C)CC(=O)N(C)CC(=O)N(C)CC(=O)N(C)CC(=O)N(C)CC(=O)N[C@@H](C)C(=O)N[C@H]5CSCc6cc7cc(c6)CSC[C@H](NC(=O)[C@@H](C)NC(=O)[C@H](Cc6cccc8ccccc68)NC(=O)[C@H](CCC(=O)O)NC(=O)[C@H](CC(N)=O)NC(=O)[C@@H](C)NC5=O)C(=O)N[C@@H](CCC(=O)O)C(=O)N[C@@H](CC(=O)O)C(=O)N[C@@H](Cc5ccccc5)C(=O)N[C@@H](Cc5ccc(O)cc5)C(=O)N[C@@H](CC(=O)O)C(=O)N[C@@H](C(C)(C)C)C(=O)N[C@H](C(N)=O)CSC7)nn4)C(C)C)cc3)NC(C)=O)nc3ccccc3c2n1CC(C)(C)O [I-24] ({X9-βAla}-[Sar][Sar][Sar][Sar][Sar][Sar][Sar][Sar][Sar][Sar]AC[dA]NE[1Nal][dA]CEDFYD[Tle]C-NH2; linker 12-18-25 via TBMB) | 6 to 24 | > 24 | > 24 | 6 to 24 | 6 to 24 | 
4 | CCOCc1nc2c(NC(=O)CCCC(=O)NCCC(=O)N(C)CC(=O)N(C)CC(=O)N(C)CC(=O)N(C)CC(=O)N(C)CC(=O)N(C)CC(=O)N(C)CC(=O)N(C)CC(=O)N(C)CC(=O)N(C)CC(=O)N[C@@H](C)C(=O)N[C@H]3CSCc4cc5cc(c4)CSC[C@H](NC(=O)[C@@H](C)NC(=O)[C@H](Cc4cccc6ccccc46)NC(=O)[C@H](CCC(=O)O)NC(=O)[C@H](CC(N)=O)NC(=O)[C@@H](C)NC3=O)C(=O)N[C@@H](CCC(=O)O)C(=O)N[C@@H](CC(=O)O)C(=O)N[C@@H](Cc3ccccc3)C(=O)N[C@@H](Cc3ccc(O)cc3)C(=O)N[C@@H](CC(=O)O)C(=O)N[C@@H](C(C)(C)C)C(=O)N[C@H](C(N)=O)CSC5)nc3ccccc3c2n1CC(C)(C)O [I-25] ({Resiquimod-Glutaryl-βAla}-[Sar][Sar][Sar][Sar][Sar][Sar][Sar][Sar][Sar][Sar]AC[dA]NE[1Nal][dA]CEDFYD[Tle]C-NH2; linker 12-18-25 via TBMB) |  | > 24 | > 24 | > 24 | > 24 | > 24
5 | CCCOc1nc(NC(=O)CCCNC(=O)OCc2ccc(NC(=O)[C@H](CCCNC(N)=O)NC(=O)[C@@H](NC(=O)Cn3cc(CCC(=O)NCCC(=O)N(C)CC(=O)N(C)CC(=O)N(C)CC(=O)N(C)CC(=O)N(C)CC(=O)N(C)CC(=O)N(C)CC(=O)N(C)CC(=O)N(C)CC(=O)N(C)CC(=O)N[C@@H](C)C(=O)N[C@H]4CSCc5cc6cc(c5)CSC[C@H](NC(=O)[C@@H](C)NC(=O)[C@H](Cc5cccc7ccccc57)NC(=O)[C@H](CCC(=O)O)NC(=O)[C@H](CC(N)=O)NC(=O)[C@@H](C)NC4=O)C(=O)N[C@@H](CCC(=O)O)C(=O)N[C@@H](CC(=O)O)C(=O)N[C@@H](Cc4ccccc4)C(=O)N[C@@H](Cc4ccc(O)cc4)C(=O)N[C@@H](CC(=O)O)C(=O)N[C@@H](C(C)(C)C)C(=O)N[C@H](C(N)=O)CSC6)nn3)C(C)C)cc2)c2[nH]c(=O)n(Cc3ccc(OCCN(C)C)nc3)c2n1 [I-26] ({X14-βAla}-[Sar][Sar][Sar][Sar][Sar][Sar][Sar][Sar][Sar][Sar]AC[dA]NE[1Nal][dA]CEDFYD[Tle]C-NH2; linker 12-18-25 via TBMB) |  | < 2 | < 2 | < 2 | < 2 | 
6 | CCOCc1nc2c(NC(=O)CCCSSC(C)CCC(=O)NCCC(=O)N(C)CC(=O)N(C)CC(=O)N(C)CC(=O)N(C)CC(=O)N(C)CC(=O)N(C)CC(=O)N(C)CC(=O)N(C)CC(=O)N(C)CC(=O)N(C)CC(=O)N[C@@H](C)C(=O)N[C@H]3CSCc4cc5cc(c4)CSC[C@H](NC(=O)[C@@H](C)NC(=O)[C@H](Cc4cccc6ccccc46)NC(=O)[C@H](CCC(=O)O)NC(=O)[C@H](CC(N)=O)NC(=O)[C@@H](C)NC3=O)C(=O)N[C@@H](CCC(=O)O)C(=O)N[C@@H](CC(=O)O)C(=O)N[C@@H](Cc3ccccc3)C(=O)N[C@@H](Cc3ccc(O)cc3)C(=O)N[C@@H](CC(=O)O)C(=O)N[C@@H](C(C)(C)C)C(=O)N[C@H](C(N)=O)CSC5)nc3ccccc3c2n1CC(C)(C)O (stereo partly drawn) [I-28] ({X15-βAla}-[Sar][Sar][Sar][Sar][Sar][Sar][Sar][Sar][Sar][Sar]AC[dA]NE[1Nal][dA]CEDFYD[Tle]C-NH2; linker 12-18-25 via TBMB) |  | < 2 | 2 to 6 | < 2 | < 2 | 
7 | CCOCc1nc2c(NC(=O)N(C)CCN(C)C(=O)OCc3ccc(NC(=O)[C@H](CCCNC(N)=O)NC(=O)[C@@H](NC(=O)Cn4cc(CCC(=O)NCCC(=O)N(C)CC(=O)N(C)CC(=O)N(C)CC(=O)N(C)CC(=O)N(C)CC(=O)N(C)CC(=O)N(C)CC(=O)N(C)CC(=O)N(C)CC(=O)N(C)CC(=O)N[C@@H](C)C(=O)N[C@H]5CSCc6cc7cc(c6)CSC[C@H](NC(=O)[C@@H](C)NC(=O)[C@H](Cc6cccc8ccccc68)NC(=O)[C@H](CCC(=O)O)NC(=O)[C@H](CC(N)=O)NC(=O)[C@@H](C)NC5=O)C(=O)N[C@@H](CCC(=O)O)C(=O)N[C@@H](CC(=O)O)C(=O)N[C@@H](Cc5ccccc5)C(=O)N[C@@H](Cc5ccc(O)cc5)C(=O)N[C@@H](CC(=O)O)C(=O)N[C@@H](C(C)(C)C)C(=O)N[C@H](C(N)=O)CSC7)nn4)C(C)C)cc3)nc3ccccc3c2n1CC(C)(C)O [I-31] ({X13-βAla}-[Sar][Sar][Sar][Sar][Sar][Sar][Sar][Sar][Sar][Sar]AC[dA]NE[1Nal][dA]CEDFYD[Tle]C-NH2; linker 12-18-25 via TBMB) |  | > 24 | > 24 | > 24 | > 24 | 

— patent publication US20200283482A1, “BICYCLIC PEPTIDE LIGAND PRR-A CONJUGATES AND USES THEREOF” (BicycleRD Limited, priority 2017, published 2020)
